Laboratory results taken from PMC5750218, “Protein-inspired antibiotics active against vancomycin- and daptomycin-resistant bacteria” (Nature Communications, 2018).
Converted amounts (≈) assume the structure as drawn. Read-outs that look alike come from different tables or passages of the source.

Key:
[1] = test system: S. aureus ATCC 43300 MRSA; assay: microbe, parasite or virus in culture; assay type: cell-based, Staphylococcus aureus; settings: for MIC: Staphylococcus aureus, 24 h, read-out: MIC S. aureus ATCC 43300 MRSA
Description: (§1) The compounds, along with standard antibiotics were serially diluted twofold across the wells of 96-well non-binding surface (NBS) polystyrene plates (Corning 3641). […] Standards ranged from 64 to 0.03 µg mL^−1 and compounds from 8 to 0.003 µg mL^−1 with final assay volumes of 100 µL per well. Gram-positive bacteria were cultured in Mueller Hinton broth (MHB) (Bactolaboratories, Cat. no. 211443) at 37 °C overnight. A sample of each culture was then diluted 40-fold in fresh MHB and incubated at 37 °C for 2–3 h. The resultant mid-log phase cultures were added to the compound-containing 96-well plates to give a final cell density of 5 × 10^5 colony forming unit (CFU) mL^−1. All the plates were covered and incubated at 37 °C for 24 h. MICs were the lowest concentration showing no visible growth.

S. pneumoniae ATCC 33400 = assay: microbe, parasite or virus in culture; assay type: cell-based, Streptococcus pneumoniae; settings: for MIC: Streptococcus pneumoniae, ATCC33400, 24 h, read-out: MIC S. pneumoniae ATCC 33400
Description: as §1

[2] = test system: S. pneumoniae ATCC 700677 MDR; assay: microbe, parasite or virus in culture; assay type: cell-based, Streptococcus pneumoniae; settings: for MIC: Streptococcus pneumoniae, ATCC700677, 24 h, read-out: MIC S. pneumoniae ATCC 700677 MDR
Description: as §1

[3] = test system: Methicillin-sensitive S. aureus ATCC 29213; assay: microbe, parasite or virus in culture; assay type: cell-based, Staphylococcus aureus; settings: for MIC: Staphylococcus aureus, ATCC 29213 / MSSA
Description: Antimicrobial activity of compounds was tested against a number of bacterial strains by broth microdilution (BMD) assay with MIC determination, including S. aureus (MSSA ATCC® 29213™, MRSA ATCC® 43300™, VISA NARSA NRS1, VISA NARSA NRS4), Streptococcus pneumoniae (MDR ATCC® 700677™) and Enterococcus faecium (MDR VanA ATCC® 51559™). ATCC strains were sourced from the American Type Culture Collection and NRS strains from NARSA (Network on Antimicrobial Resistance in S. aureus) via BEI Resources (www.beiresources.org). All compounds were prepared to 160 µg mL^−1 solution in water from a stock solution of 1 mM concentration.
as §1, with “The compounds, along with standard antibiotics were serially diluted twofold across the wells of 96-well non-binding surface (NBS) polystyrene plates (Corning 3641).” left out

Haemolysis assay = assay type: cell-based; settings: human; for hemolysis at 3 h: whole blood
in vitro = settings: human, 50% human plasma (pooled, sodium heparin) in PBS, pH 7.4
Description: (§2) Briefly, test compounds (20 μM) were prepared from a 0.2 mM H2O stock solution (40 μL in 400 μL assay volume) except eucatropine, which was 300 μg mL^−1 in 100% DMSO (10 μL in 400 μL assay volume equivalent to 23 μM). The precipitating solution was prepared by adding 5 μL of 10 mM carbutamide in DMSO to 100 mL acetonitrile (final concentration: 135.5 ng mL^−1 or 0.5 μM carbutamide). The human plasma sample (pooled normal human plasma sodium heparin anticoagulant, 2 µL, Cat No.: [sequence], BioReclamation) and phosphate-buffer saline (PBS, pH 7.4 isotonic) were pre-heated at 37 °C for 30 min. 40 μL of test compounds (0.2 mM) were added to protein-low binding Eppendorf tubes, 160 μL of buffer was added, and the mixture was vortexed. For eucatropine, 10 μL of eucatropine (300 μg mL^−1) was added to a protein-low binding Eppendorf tube, 190 μL of buffer was added, and the mixture was vortexed. In each case, 200 μL of plasma was added and the resultant mixture vortexed. For the initial time point (reaction time t = 0 h), 50 μL of sample was immediately transferred into a protein-low binding Eppendorf tube and quenched with 150 μL of the ice-cold precipitating solution, followed by vortexing and subsequent storage at 4 °C. For the remaining time points, the plasma solution was incubated and shaken (150 rpm) at 37 °C. 50 μL aliquots were collected at time points of 0, 1, 3, 6 and 24 h and quenched with 150 μL the ice-cold precipitating solution. All samples were placed in a 4 °C fridge for 30 min then centrifuged at 14,000 × g for 8 min at 4 °C. The supernatant (100 μL) was transferred to a glass vial insert and stored at 4 °C until LC-MS/MS analysis. The percentage of test compounds remaining at the individual time points relative to sample at time point 0 h were reported.

[4] = 37 °C, 20 µM
Description: as §2

[5] = In vivo pharmacokinetics in mice; settings: mouse; for level at […]: 0.250 h; for level at 0.5 h: 0.500 h; for MRT inf: read-out: MRT0-inf; for MRT last: read-out: MRT0-last
Description: Performed by WuXi AppTec (Shanghai) Co., Ltd. Seven to 9-week-old male CD1 mice (SLAC Laboratory Animal Co. Ltd., Shanghai, China) weighing 25–35 g were acclimated for approximate 3 days before being used in the study. Animals are group housed during acclimation and in-life study in compliance with the National Research Council 'Guide for the Care and Use of Laboratory Animals.' The animal room environment is controlled (target conditions: temperature 18 to 26 °C, relative humidity 30–70%, 12 h artificial light and 12 h dark) with temperature and relative humidity monitored daily. Animals were deprived of food for approximately 16 h before formulation administration then allowed access to Certified Rodent Diet (Catalogue # M-01F, Shanghai SLAC Laboratory Animal Co. Ltd.) ad libitum 4 h post dosing. Water was autoclaved before being provided to the animals ad libitum. Formulations of compounds were prepared on the morning of the dosing day. The formulation for the IV group was filtered with filter of 0.22 μm before being dosed to animals. After dose formulation preparation, duplicate 50 μL aliquots were removed from each dose formulation for use in dose validation. For each compound studied, three mice were dosed intravenously (IV) administered to each animal via tail vein per facility SOPs using test article formulated in deionised water at 1 mg mL^−1 with a dose volume of 2 mg mL^−1, providing a dose of 2 mg mL^−1 (based on free base concentration). An additional three mice were dosed subcutaneously (SC) administered to each animal via subcutaneous bolus on each animals’ back per facility SOPs using test article formulated in deionised water at 2 mg mL^−1 with a dose volume of 5 mg mL^−1, providing a dose of 10 mg mL^−1. All animals were killed at the last study time point (100% CO2 was introduced into the animal box).
Plasma samples were collected as the following target times after each dose administration: IV Sampling Time points (hours post dosing): 0, 0.083, 0.25, 0.5, 1, 2, 4, 8 and 24. SC Sampling Time points (hours post dosing): 0, 0.25, 0.5, 1, 2, 4, 8 and 24. Approximately 30 μL blood was obtained via submandibular or saphenous vein for the first several time points. For the last time point, samples were collected via cardiac puncture while the mouse was under anaesthesia. All blood samples were transferred into pre-chilled plastic microcentrifuge tubes containing 2 μL of ethylenediaminetetraacetic acid dipotassium salt (K2-EDTA) (0.5 M) as anticoagulant and placed on wet ice until centrifugation. Harvested blood samples were centrifuged within 30 min of collection at 7000 rpm (8546 × g) 4 °C for about 10 min. After centrifugation, plasma was transferred into another pre-labelled and pre-chilled polypropylene microcentrifuge tubes, then quick-frozen over dry ice and stored at −70 ± 10 °C until LC/MSMS analysis.
LC-MS/MS methods for the quantitative determination of the test article in mouse plasma were developed with an internal standard. Benchtop stability of the compound in mouse plasma was determined at mid QC concentrations in triplicate at 0, 2 h at room temperature. The stability was determined using mean peak area ratio of T2/T0 sample. If the mean peak area ratio is within 80%~120%, the test article in the plasma is considered stable for 2 h at room temperature. […] A set of QC samples consists of three concentration levels (low, middle and high). The sample analysis was performed concurrently with a set of calibration standards and two sets of QC samples using the LC-MS/MS method.
Plasma concentration vs. time data from individual animals was analysed by WinNonLin non-compartmental model (Phoenix WinNonlin 6.2.1, Pharsight, Mountain View, CA). Pharmacokinetic parameter C 0, T ½, CL, Vdss, C max, T max, AUC0-last, AUC0-inf, %F, MRT0-last, MRT0-inf and graphs of plasma concentration vs. time profile were derived.

[6] = test system: Bacillus subtilis ATCC 6633; assay: microbe, parasite or virus in culture; assay type: cell-based; settings: ATCC 6633, 48 h
[7] = male, CD1, plasma, 2 mg/kg IV, read-out: Plasma concentration, Mean IV
[8] = male, CD1, plasma, 10 mg/kg SC, read-out: Plasma concentration, Mean SC

In the case of `CN[C@H]1C(=O)N[C@@H]2Cc3ccc(cc3)Oc3cc4cc(c3O[C@@H]3O[C@H](C(=O)O)[C@@H](O)[C@H](O)[C@H]3NC(=O)CCCCCCCCC(C)C)Oc3ccc(cc3Cl)[C@@H](O)[C@@H]3NC(=O)[C@H](NC(=O)[C@@H]4NC(=O)[C@@H](NC2=O)c2cc(cc(O)c2Cl)Oc2cc1ccc2O)c1ccc(O)c(c1)-c1c(O[C@H]2O[C@H](CO)[C@@H](O)[C@H](O)[C@@H]2O)cc(O)cc1[C@@H](C(=O)NCCCN(C)C)NC3=O` [Compound 3, Dalbavancin], the “MIC S. aureus ATCC 43300 MRSA” value ([1]; 1% Survanta) is reported as 0.06 µg/mL (≈ 0.033 µM), the “MIC S. aureus ATCC 43300 MRSA” value ([1]; 5% Survanta) is reported as 0.125 µg/mL (≈ 0.0688 µM) and the “MIC S. pneumoniae ATCC 33400” value (S. pneumoniae ATCC 33400; 1% Survanta) is reported as 0.06 µg/mL (≈ 0.033 µM). For the same compound, the “MIC S. pneumoniae ATCC 33400” value (S. pneumoniae ATCC 33400; 5% Survanta) was 0.125 µg/mL (≈ 0.0688 µM), the “MIC S. pneumoniae ATCC 33400” value (S. pneumoniae ATCC 33400; no added Survanta) was 0.06 µg/mL (≈ 0.033 µM) and the “MIC S. pneumoniae ATCC 700677 MDR” value ([2]; 1% Survanta) was 0.06 µg/mL (≈ 0.033 µM). The “MIC S. pneumoniae ATCC 700677 MDR” value ([2]; no added Survanta) was 0.06 µg/mL (≈ 0.033 µM), the “MIC MSSA” value ([3]; S. aureus ATCC 29213) was at most 0.016 µg/mL and the “MIC S. aureus ATCC29213 MSSA, NBS” value ([3]; non-binding surface plate) was at most 0.016 µg/mL. For the same compound, the “MIC S. aureus ATCC29213 MSSA, PP” value ([3]; polypropylene plate) was 0.125 µg/mL (≈ 0.0688 µM), the “MIC S. aureus ATCC29213 MSSA, PS+P-80” value ([3]; polystyrene plate with 0.002% polysorbate-80) was at most 0.016 µg/mL and the “MIC S. aureus ATCC29213 MSSA, PS” value ([3]; polystyrene plate, no polysorbate-80) was 0.25 µg/mL (≈ 0.138 µM).
With `CCCCCCCCCC(=O)N[C@@H](Cc1c[nH]c2ccccc12)C(=O)N[C@H](CC(N)=O)C(=O)N[C@@H](CC(=O)O)C(=O)N[C@@H]1C(=O)NCC(=O)N[C@@H](CCCN)C(=O)N[C@@H](CC(=O)O)C(=O)N[C@H](C)C(=O)N[C@@H](CC(=O)O)C(=O)NCC(=O)N[C@H](CO)C(=O)N[C@@H]([C@H](C)CC(=O)O)C(=O)N[C@@H](CC(=O)c2ccccc2N)C(=O)O[C@@H]1C` [Compound 4, Daptomycin] the MIC ([1]; 1% Survanta) was over 8 µg/mL, the MIC ([1]; 5% Survanta) was over 8 µg/mL and the MIC ([1]; no added Survanta) was 2 µg/mL (≈ 1.23 µM). It also gave an MIC (S. pneumoniae ATCC 33400; 1% Survanta) of over 8 µg/mL, an MIC (S. pneumoniae ATCC 33400; 5% Survanta) of over 8 µg/mL and an MIC (S. pneumoniae ATCC 33400; no added Survanta) of 2 to 4 µg/mL (≈ 1.23 to 2.47 µM). It also gave an MIC ([2]; 1% Survanta) of over 8 µg/mL, an MIC ([2]; 5% Survanta) of over 8 µg/mL and an MIC ([2]; no added Survanta) of 4 µg/mL (≈ 2.47 µM). It also gave a hemolysis at 3 h, 25 µg mL-1 (Haemolysis assay; % Human Whole Blood Haemolysis) of 0%, a hemolysis at 3 h, 50 µg mL-1 (Haemolysis assay; % Human Whole Blood Haemolysis) of 0.4% and a hemolysis at 3 h, 100 µg mL-1 (Haemolysis assay; % Human Whole Blood Haemolysis) of 0%. It also gave a hemolysis at 3 h, 200 µg mL-1 (Haemolysis assay; % Human Whole Blood Haemolysis) of 0.3%, a hemolysis at 3 h, 400 µg mL-1 (Haemolysis assay; % Human Whole Blood Haemolysis) of 0.9% and a hemolysis at 3 h, 800 µg mL-1 (Haemolysis assay; % Human Whole Blood Haemolysis) of 0.3%. It also gave a hemolysis at 3 h, 1600 µg mL-1 (Haemolysis assay; % Human Whole Blood Haemolysis) of 1.6%, an MIC ([3]; S. aureus ATCC 29213, read-out: MIC MSSA) of 1 µg/mL (≈ 0.617 µM) and an MIC ([3]; non-binding surface plate, read-out: MIC S. aureus ATCC29213 MSSA, NBS) of 0.5 to 1 µg/mL (≈ 0.309 to 0.617 µM). It also gave an MIC ([3]; polypropylene plate, read-out: MIC S. aureus ATCC29213 MSSA, PP) of 1 µg/mL (≈ 0.617 µM), an MIC ([3]; polystyrene plate with 0.002% polysorbate-80, read-out: MIC S. aureus ATCC29213 MSSA, PS+P-80) of 1 µg/mL (≈ 0.617 µM) and an MIC ([3]; polystyrene plate, no polysorbate-80, read-out: MIC S. aureus ATCC29213 MSSA, PS) of 1 µg/mL (≈ 0.617 µM).
With `CCCCCCCCCCC(=O)N[C@@H](CCCCN)C(=O)N[C@@H](CCCCN)C(=O)N[C@@H](CCCCN)C(=O)N[C@@H](CCCCNC(=O)[C@H]1NC(=O)[C@H]2NC(=O)[C@H](NC(=O)[C@@H]3NC(=O)[C@H](CC(N)=O)NC(=O)[C@H](NC(=O)[C@@H](CC(C)C)NC)[C@H](O)c4ccc(c(Cl)c4)Oc4cc3cc(c4O[C@@H]3O[C@H](CO)[C@@H](O)[C@H](O)[C@H]3O[C@H]3C[C@](C)(N)[C@H](O)[C@H](C)O3)Oc3ccc(cc3Cl)[C@H]2O)c2ccc(O)c(c2)-c2c(O)cc(O)cc21)C(=O)O` [Compound 18, nC10CO-KKK-K(Vancomycin)-OH] the remaining at 1 h, 20 µM (in vitro) was 87%, the remaining at 3 h, 20 µM (in vitro) was 87% and the remaining at 6 h, 20 µM (in vitro) was 83%. The remaining at 24 h, 20 µM (in vitro) was 93%, the “% compound remaining after incubation in 50% human plasma, 0h” value [4] was 100% and the level at 5 min ([5]; male, CD1, plasma, 2 mg/kg IV, 5 min, n=3, read-out: Plasma concentration, Mean IV) was 5440 ng/mL. For the same compound, the level at […] [5, 7] was 3570 ng/mL, the level at 0.5 h [5, 7] was 2250 ng/mL and the level at 1 h [5, 7] was 1500 ng/mL. It also gave a level at 2 h [5, 7] of 447 ng/mL, a level at 4 h [5, 7] of 69.6 ng/mL and a level at […] ([5]; male, CD1, plasma, 10 mg/kg SC, n=3, read-out: Plasma concentration, Mean SC) of 2360 ng/mL. The level at 0.5 h [5, 8] was 4450 ng/mL, the level at 1 h [5, 8] was 6220 ng/mL and the level at 2 h [5, 8] was 4520 ng/mL. For the same compound, the level at 4 h [5, 8] was 1260 ng/mL, the level at 8 h ([5]; male, CD1, plasma, 10 mg/kg SC, 8.00 h, read-out: Plasma concentration, Mean SC) was 113 ng/mL and the AUC0-inf/AUC0-last ([5]; IV 2 mg kg-1) was 101%. It also gave an AUC0-inf/AUC0-last ([5]; SC 10 mg kg-1) of 101%, a Tlast ([5]; SC 10 mg kg-1) of 8 h and a bioavailability ([5]; plasma, subcutaneous, SC 10 mg kg-1 vs IV 2 mg kg-1) of 77%. It also gave an AUC(0-inf) ([5]; plasma, IV 2 mg kg-1) of 4240 ng·h/mL, an AUC(0-t) ([5]; plasma, IV 2 mg kg-1) of 4210 ng·h/mL and a C0 ([5]; plasma, IV 2 mg kg-1) of 6740 ng/mL. For the same compound, the clearance ([5]; plasma, IV 2 mg kg-1) was 8.11 mL/min/kg, the half-life ([5]; plasma, IV 2 mg kg-1) was 46.2 min and the MRT inf ([5]; plasma, IV 2 mg kg-1) was 54 min. The MRT last ([5]; plasma, IV 2 mg kg-1) was 54 min, the Vd ([5]; plasma, IV 2 mg kg-1, read-out: Vdss) was 0.43 L/kg and the AUC(0-inf) ([5]; plasma, SC 10 mg kg-1) was 16300 ng·h/mL. It also gave an AUC(0-t) ([5]; plasma, SC 10 mg kg-1) of 16100 ng·h/mL, a Cmax ([5]; plasma, SC 10 mg kg-1) of 6290 ng/mL and a Tmax ([5]; plasma, SC 10 mg kg-1) of 49.8 min. For the same compound, the half-life ([5]; plasma, SC 10 mg kg-1) was 66 min, the MRT inf ([5]; plasma, SC 10 mg kg-1) was 120 min and the MRT last ([5]; plasma, SC 10 mg kg-1) was 114 min. For the same compound, the hemolysis at 3 h (Haemolysis assay; 100 µg mL-1) was 1.4%, the hemolysis at 3 h (Haemolysis assay; 1600 µg mL-1) was 1.2% and the “Ac2Kaa concentration required to neutralise MIC activity” value [6] was 100 µg/mL. The MIC [6] was at most 0.004 µg/mL.
